Here are results for one molecule from PMC7667886, “Who with whom: functional coordination of E2 enzymes by RING E3 ligases during poly‐ubiquitylation” (The EMBO Journal, 2020).

Test [1] deals with T1, Ubc7 containing only the catalytic cysteine (C89only = C39A/C141S) (yeast, UniProt Q02159 1-165, C39A | C141S).
T1 construct: Ubc7, yeast ERAD E2 enzyme, single-cysteine variant C39A/C141S; also called Ubc7(C89only)
T1 sequence (looked up): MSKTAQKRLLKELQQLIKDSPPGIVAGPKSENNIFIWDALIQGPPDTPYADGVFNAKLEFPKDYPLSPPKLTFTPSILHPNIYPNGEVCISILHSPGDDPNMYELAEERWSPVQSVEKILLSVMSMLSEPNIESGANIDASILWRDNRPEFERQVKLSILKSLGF
Description: SEC; purified Ubc7 and U7BR mixed in a 1:2 ratio, complex purified on Superdex 75. The following applies: both partners purified. (In gel filtration, larger molecules generally elute earlier.)

For test [2], the target named is T2, Ubc7(wt) (yeast, UniProt Q02159 1-165).
T2 construct: Ubc7, yeast ERAD E2 enzyme, wild type
T2 sequence (looked up): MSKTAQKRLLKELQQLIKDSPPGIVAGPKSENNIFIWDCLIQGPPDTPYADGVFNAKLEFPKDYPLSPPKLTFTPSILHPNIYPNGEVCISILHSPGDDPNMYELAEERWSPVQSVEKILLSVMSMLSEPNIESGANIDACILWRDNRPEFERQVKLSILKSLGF
Described as above. To be noted: both partners purified.

B1: U7BR domain of Cue1 (aa 150–203) (domain or fragment, yeast, UniProt P38428 150-203, looked up)
chain: NLLDKFHVDLNEDMSNLSFKDLDIEERKRLLVWQARKNLETKLQSDKDLQSLLT
notes: Treated on Ni-NTA with thrombin and GST-hSENP1, then washed and eluted with imidazole; source: E. coli BL21/DE3, purified (Ni-NTA, incubation with thrombin and GST-hSENP1, imidazole elution, Superdex 75)
B1: the binding result in test [1] and in test [2] was “binds” each time.
